Test results: article doi:10.1101/718155

Columns and labels:
[1] = target: C-ERMAD (516-560 and 516-586) peptide (UniProt P15311); test: FP
[2] = target: S100A4; test: ITC
[3] = target: S100A2; test: FP
[4] = target: S100A4; test: FP
[5] = target: S100A6; test: FP
[6] = target: S100P; test: FP
[7] = target: S100A1; test: FP
[8] = target: S100A11; test: FP
[9] = target: S100A3; test: FP
[10] = target: S100A5; test: FP
[11] = target: S100A14; test: FP
[12] = target: S100A15; test: FP
[13] = target: S100A7; test: FP
[14] = target: S100G; test: FP

Sequence of p53 (1-60; 17-53) peptide (P04637 1-60): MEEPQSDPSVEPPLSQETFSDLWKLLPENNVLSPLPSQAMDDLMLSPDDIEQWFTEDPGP
Sequence of C-ERMAD (516-560 and 516-586) peptide (from UniProt P15311 516-586) (P15311 516-586): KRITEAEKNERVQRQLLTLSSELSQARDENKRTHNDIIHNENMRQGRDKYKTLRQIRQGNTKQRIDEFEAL
Sequence of C-ERMAD (516-560 and 516-586) peptide (UniProt P15311) (P15311 516-586): as above

Substance | Kd [3] [µM] | Kd [4] [µM] | Kd [5] [µM] | Kd [6] [µM] | further results
S100A4 |  |  |  |  | Kd [1]: 11 µM
S100A2 |  |  |  |  | Kd [1]: 15 µM
MNK1 | 18 | 24 | 6.7 | 2.5 | 

The remaining substances from weak to strong by Kd [3], led by results:

Kd [3] [µM] | Kd [4] [µM] | Kd [5] [µM] | Kd [6] [µM] | Substance | further results
5.4 | 6.1 |  |  | C-ERMAD (516-560 and 516-586) peptide (from UniProt P15311 516-586) | Kd [2]: 35 µM
5.2 | 2.1 | 2.2 |  | p53 (1-60; 17-53) peptide (from UniProt P04637 1-60) | Kd [8]: 12 µM; Kd [9]: 7.7 µM; Kd [10]: 67 µM
4.5 |  |  | 2.7 | MK2 | Kd [7]: 15 µM
0.27 | 2 | 0.007 | 1.2 | FOR20 | Kd [11]: 63 µM; Kd [12]: 17 µM; Kd [7]: 0.5 µM; Kd [9]: 29 µM; Kd [10]: 1.9 µM; Kd [13]: 5.9 µM; Kd [14]: 3.8 µM
